Laboratory results from article PMC12155690.

Legend:
[1] = molecular target: human RetGC1 p.(Arg624Gln) (human) (UniProt Q02846)
[2] = molecular target: human RetGC1 p.(Leu587Val) (human) (UniProt Q02846)
[3] = molecular target: T1, human retinal guanylyl/guanylate cyclase 1 (RetGC1), wild type (human) (UniProt Q02846)
T1 sequence: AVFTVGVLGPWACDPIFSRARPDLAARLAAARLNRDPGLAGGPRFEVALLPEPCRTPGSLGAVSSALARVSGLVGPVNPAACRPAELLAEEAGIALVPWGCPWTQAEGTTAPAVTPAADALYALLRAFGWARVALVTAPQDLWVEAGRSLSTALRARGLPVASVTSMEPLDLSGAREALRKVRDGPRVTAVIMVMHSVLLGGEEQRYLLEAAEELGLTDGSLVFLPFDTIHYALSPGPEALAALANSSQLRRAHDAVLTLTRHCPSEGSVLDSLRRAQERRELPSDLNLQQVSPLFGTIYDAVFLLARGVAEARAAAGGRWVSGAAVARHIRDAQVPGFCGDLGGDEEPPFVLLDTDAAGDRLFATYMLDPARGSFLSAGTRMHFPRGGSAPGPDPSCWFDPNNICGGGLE

[4] = molecular target: human RetGC1 p.(Tyr555Ser) (human) (UniProt Q02846)

[GCAP]1/2: GCAP1 concentration producing half-maximal stimulation of guanylyl cyclase activity (HEK293 membranes, 10 mM MgCl2, 2 mM EGTA) [1]: 4.1 µM
[GCAP]1/2: GCAP1 concentration producing half-maximal stimulation of guanylyl cyclase activity (HEK293 membranes, 10 mM MgCl2, 2 mM EGTA) [2]: 2.4 µM
[GCAP]1/2: GCAP1 concentration producing half-maximal stimulation of guanylyl cyclase activity (HEK293 membranes, 10 mM MgCl2, 2 mM EGTA) [3]: 0.98 µM
[GCAP]1/2: GCAP1 concentration producing half-maximal stimulation of guanylyl cyclase activity (HEK293 membranes, 10 mM MgCl2, 2 mM EGTA) [4]: 4.4 µM
B1: Human GCAP1 (Ser6) (natural protein)
chain: MGNVMSGKSVEELSSTECHQWYKKFMTECPSGQLTLYEFRQFFGLKNLSPSASQYVEQMFETFDFNKDGYIDFMEYVAALSLVLKGKVEQKLRWYFKLYDVDGNGCIDRDELLTIIQAIRAINPCSDTTMTAEEFTDTVFSKIDVNGDGELSLEEFIEGVQKDQMLLDTLTRSLDLTRIVRRLQNGEQDEEGADEAAEAAG
